# Source: patent publication US20250043302A1, “MUTATED HYDROXYPHENYLPYRUVATE DIOXYGENASE POLYPEPTIDE, AND CODING GENE AND USE THEREOF” (BEIJING DABEINONG BIOTECHNOLOGY CO., LTD., priority 2021, published 2025)
# B1: NtHPPDm-F383W-02: nucleotide sequence encoding Nicotiana tabacum HPPD with F383W; vector DBN11752 (nucleic acid)
# DNA: ATGGGGAAGCTGGAAACCGTCACTACCACCTCGGCGGCGGCTGCTGATGATTCATCGGAATTAACAACCAACTTCAAGTTGGTTGGTTTCAAAAATTTCATCAGAACAAACCCAAGGTCTGATTTCTTCTCCGTCAAGAGCTTCCACCACATTGAATTCTGGTGCGGTGACGCAACTAACACAGCGCGCCGCTTCTCATGGAGCCTAGGGATGCCAATTGCAGCTAAGAGTGATCTTTCAACAGGAAACAGCGTGCACGCCTCCTACCTCCTCCGGCCCGTAAGCGGTTCTTTACAGTTCCTGTTTACAGCACCATATTCACCTTCTATTTCGACTCCTAGTTCAGCTGCAATCCCATCTTTTTCCACATCTACACATAGGTCTTTCACTACAACACATGGACTGGGTGTTCGTGCCGTCGCCCTCGAGGTGGAGAATGCTTATACTGCCTTCAGTGCTTCTGTCTCCAGAGGCGCCAAGCCAATGTTTGAACCTGTGACAATTGATGAACAAGTAGCAATGGCTGAGGTTCATTTGTACGGCGATGTTGTGCTGCGATTTGTTTCTTATCTCAAGGACGCCGACAACCTGGTCTTCCTGCCGGGGTTTGAGGCCATGGATGAAACTGCTAGTTACAAAGAACTTGATTATGGAATACGGCGTTTGGATCATGCTGTGGGCAATGTTCCAGAACTCGGCCCGGTAGTTGATTACATCAAGAGGTTTACTGGATTTCATGAATTTGCAGAGTTTACCGCTGAAGATGTGGGAACTGCGGAAAGTGGGCTAAACTCCATGGTTCTTGCGAACAATGATGAGACTGTGCTCCTCCCTCTGAATGAGCCTGTTTATGGCACCAAAAGAAAATCTCAGATACAAACATATCTTGAGCATAATGAAGGAGCTGGGGTGCAGCACCTTGCTCTTGTTACTGAAGACATCTTTAAGACTTTGACAGAGATGAGGAAGAGAAGTGGAGTTGGAGGTTTTGAGTTCATGCCTTCCCCCCCGCCGACCTACTACAAGAATTTGAAGAACAGGGCTGGTGACGTCCTCTCAGACGAGCAGATTTTGGCTTGTGAGGAGCTTGGCATCTTGGTAGACCGGGACGACCAGGGGACGCTTCTCCAAATTTTCACAAAACCCGTCGGGGACCGCCCCACCATATGGATTGAGATCATCCAGAGGATAGGCTGCATGCTTAAAGATGGAAAAGGTCAAGTGTACCAGAAGGGTGGTTGTGGTGGGTTTGGCAAAGGAAATTTTTCTGAGCTGTTCAGAAGCATAGAAGAATATGAGAAGACACTGGAAGCAAAACAAGCAAATCAAGTTGCGGCCGCGTGA
# modifications: NtHPPDm-F383W-02 Nucleotide Sequence
# notes: vector DBN11752
# How the values were obtained:
# Type in all cases: in vivo
# [1] = test system: Arabidopsis thaliana T1 plants; test: Topramezone tolerance of transgenic Arabidopsis thaliana T1 plants (spray, bleached leaf area grade, damage score); conditions: 7 DAT, Table 4; for Classification and statistics of the grade of pesticide damage: Grade 0 / Classification and statistics of the grade of pesticide damage: Grade 1 / Classification and statistics of the grade of pesticide damage: Grade 2 / Classification and statistics of the grade of pesticide damage: Grade 3: number of plants; for Scores: pesticide damage score 0-100
# Procedure, shortened: (§1)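 Read-out: per-plant damage grade 0–3 from proportion of bleached leaf area at 7 DAT (1 <50%, 2 >50%, 3 100%). Plants were T1 transformants, glufosinate-selected, plus wild-type CK, sprayed 18 days post-sowing. Rates: topramezone 25–200, isoxaflutole 35–280, mesotrione 52.5–420 g ai/ha.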
# [2] = test system: Arabidopsis thaliana T1 plants; test: Isoxaflutole tolerance of transgenic Arabidopsis thaliana T1 plants (spray, bleached leaf area grade, damage score); design: Scores (pesticide damage): scale not given here; conditions: spray, Arabidopsis thaliana T1 plants; for Classification and statistics of the grade of pesticide damage: Grade 0 (number of plants) / Classification and statistics of the grade of pesticide damage: Grade 1 (number of plants) / Classification and statistics of the grade of pesticide damage: Grade 2 (number of plants) / Classification and statistics of the grade of pesticide damage: Grade 3 (number of plants): 16 plants
# Procedure, shortened: as §1
# [3] = test system: Arabidopsis thaliana T1 plants; test: Mesotrione tolerance of transgenic Arabidopsis thaliana T1 plants (spray, bleached leaf area grade, damage score); design: Scores: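 damage score 0-100 computed as Σ(N×S)/(T×M)×100 over grades 0-3 with higher meaning more damage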; conditions: Arabidopsis thaliana T1 plants; for Grade 0 (classification and statistics of the grade of pesticide damage; number of plants) / Grade 1 (classification and statistics of the grade of pesticide damage; number of plants) / Grade 2 (classification and statistics of the grade of pesticide damage; number of plants) / Grade 3 (classification and statistics of the grade of pesticide damage; number of plants): 16 plants
# Procedure, shortened: as §1
# [4] = isoxaflutole 35 g ai/ha (0.5x field concentration)
# [5] = isoxaflutole 70 g ai/ha (1x field concentration)
molecule,measurement,setting,value
B1,Classification and statistics of the grade of pesticide damage: Grade 0,[1]; topramezone 25 g ai/ha (1×),0
same,Classification and statistics of the grade of pesticide damage: Grade 1,[1]; topramezone 25 g ai/ha (1×),0
same,Classification and statistics of the grade of pesticide damage: Grade 2,[1]; topramezone 25 g ai/ha (1×),10
same,Classification and statistics of the grade of pesticide damage: Grade 3,[1]; topramezone 25 g ai/ha (1×),6
same,Classification and statistics of the grade of pesticide damage: Grade 0,[1]; topramezone 100 g ai/ha (4×),0
same,Classification and statistics of the grade of pesticide damage: Grade 1,[1]; topramezone 100 g ai/ha (4×),0
same,Classification and statistics of the grade of pesticide damage: Grade 2,[1]; topramezone 100 g ai/ha (4×),0
same,Classification and statistics of the grade of pesticide damage: Grade 3,[1]; topramezone 100 g ai/ha (4×),16
same,Scores,[1]; topramezone 25 g ai/ha (1×),79
same,Scores,[1]; topramezone 100 g ai/ha (4×),100
same,Resistance evaluation,[1]; topramezone 25 g ai/ha (1×),non-resistant (non-resistant plants (scores 68-100))
same,Resistance evaluation,[1]; topramezone 100 g ai/ha (4×),non-resistant (non-resistant plants (scores 68-100))
same,Resistance evaluation,[2]; [4],Non-resistant
same,Scores (pesticide damage),[2]; [4],88
same,Classification and statistics of the grade of pesticide damage: Grade 0 (number of plants),[2]; [4],0
same,Classification and statistics of the grade of pesticide damage: Grade 1 (number of plants),[2]; [4],0
same,Classification and statistics of the grade of pesticide damage: Grade 2 (number of plants),[2]; [4],6
same,Classification and statistics of the grade of pesticide damage: Grade 3 (number of plants),[2]; [4],10
same,Resistance evaluation,[2]; [5],Non-resistant
same,Scores (pesticide damage),[2]; [5],100
same,Classification and statistics of the grade of pesticide damage: Grade 0 (number of plants),[2]; [5],0
same,Classification and statistics of the grade of pesticide damage: Grade 1 (number of plants),[2]; [5],0
same,Classification and statistics of the grade of pesticide damage: Grade 2 (number of plants),[2]; [5],0
same,Classification and statistics of the grade of pesticide damage: Grade 3 (number of plants),[2]; [5],16
same,Resistance evaluation,[3]; mesotrione 52.5 g ai/ha,Non-resistant
same,Scores,[3]; mesotrione 52.5 g ai/ha,100
same,Grade 0 (classification and statistics of the grade of pesticide damage; number of plants),[3]; mesotrione 52.5 g ai/ha,0
same,Grade 1 (classification and statistics of the grade of pesticide damage; number of plants),[3]; mesotrione 52.5 g ai/ha,0
same,Grade 2 (classification and statistics of the grade of pesticide damage; number of plants),[3]; mesotrione 52.5 g ai/ha,0
same,Grade 3 (classification and statistics of the grade of pesticide damage; number of plants),[3]; mesotrione 52.5 g ai/ha,16
same,Resistance evaluation,[3]; mesotrione 105 g ai/ha,Non-resistant
same,Scores,[3]; mesotrione 105 g ai/ha,100
same,Grade 0 (classification and statistics of the grade of pesticide damage; number of plants),[3]; mesotrione 105 g ai/ha,0
same,Grade 1 (classification and statistics of the grade of pesticide damage; number of plants),[3]; mesotrione 105 g ai/ha,0
same,Grade 2 (classification and statistics of the grade of pesticide damage; number of plants),[3]; mesotrione 105 g ai/ha,0
same,Grade 3 (classification and statistics of the grade of pesticide damage; number of plants),[3]; mesotrione 105 g ai/ha,16
